Test results from FireProtDB (doi:10.1006/jmbi.1997.1365).

B1: Lysozyme C, P61626 (parent)
chain: MKALIVLGLVLLSVTVQGKVFERCELARTLKRLGMDGYRGISLANWMCLAKWESGYNTRATNYNAGDRSTDYGIFQINSRYWCNDGKTPGAVNACHLSCSALLQDNIADAVACAKRVVRDPQGIRAWVAWRNRCQNRDVRQYVQGCGV

Variants of: B1
Conditions: Homo sapiens; pH 2.5; Thermal; DSC; glycine 0.05 M; reversible: yes; structure 1LZ1; whole UniProt chain shown

Variant	Tm [°C]	heat capacity change of unfolding [kcal/mol/K]	unfolding enthalpy (calorimetric) [kcal/mol]	unfolding enthalpy (van 't Hoff) [kcal/mol]
MKALIVLGLVLLSVTVQGKVFERCELARTLKRLGMDGYRGISLANWMCLAKWESGYNTRATNYNAGDRSTDYGIFQINSRYWCNDGKTPGAVNACHLSCSALLQDNAADAVACAKRVVRDPQGIRAWVAWRNRCQNRDVRQYVQGCGV [I107A]	52.6	1.72	89.5	95.5

Same assay, conditions: Homo sapiens; pH 2.66; Thermal; DSC; glycine 0.05 M; reversible: yes; structure 1LZ1; whole UniProt chain shown

Variant	Tm [°C]	heat capacity change of unfolding [kcal/mol/K]	unfolding enthalpy (calorimetric) [kcal/mol]	unfolding enthalpy (van 't Hoff) [kcal/mol]
MKALIVLGLVLLSVTVQGKVFERCELARTLKRLGMDGYRGISLANWMCLAKWESGYNTRATNYNAGDRSTDYGIFQINSRYWCNDGKTPGAVNACHLSCSALLQDNAADAVACAKRVVRDPQGIRAWVAWRNRCQNRDVRQYVQGCGV [I107A]	55.4	1.39	93.1	98.1

Same assay, conditions: Homo sapiens; pH 2.7; 64.9 °C; Thermal; DSC; glycine 0.05 M; reversible: yes; structure 1LZ1; whole UniProt chain shown

Variant	ddG of mutation (higher = less stable) [kcal/mol]	heat capacity change of unfolding [kcal/mol/K]	unfolding enthalpy (calorimetric) [kcal/mol]	unfolding enthalpy (van 't Hoff) [kcal/mol]
MKALIVLGLVLLSVTVQGKVFERCELARTLKRLGMDGYRGISLANWMCLAKWESGYNTRATNYNAGDRSTDYGIFQINSRYWCNDGKTPGAVNACHLSCSALLQDNAADAVACAKRVVRDPQGIRAWVAWRNRCQNRDVRQYVQGCGV [I107A]	2.7	1.65	110	113
MKALIVLGLVLLSVTVQGKVFERCELARTLKRLGMDGYRGISLANWMCLAKWESGYNTRATNYNAGDRSTDYGIFQINSRYWCNDGKTPGAVNACHLSCSALLQDNIADAVACAKRVVRDPQGARAWVAWRNRCQNRDVRQYVQGCGV [I124A]	0.93	1.34	106	112
MKALIVLGLVLLSVTVQGKVFERCELARTLKRLGMDGYRGASLANWMCLAKWESGYNTRATNYNAGDRSTDYGIFQINSRYWCNDGKTPGAVNACHLSCSALLQDNIADAVACAKRVVRDPQGIRAWVAWRNRCQNRDVRQYVQGCGV [I41A]	2.54	1.2	109	116

Same assay, conditions: Homo sapiens; pH 2.7; Thermal; DSC; glycine 0.05 M; reversible: yes; structure 1LZ1; whole UniProt chain shown

Variant	Tm [°C]	change of melting temperature, mutant - wild type (higher = more stable) [°C]	heat capacity change of unfolding [kcal/mol/K]
MKALIVLGLVLLSVTVQGKVFERCELARTLKRLGMDGYRGISLANWMCLAKWESGYNTRATNYNAGDRSTDYGIFQINSRYWCNDGKTPGAVNACHLSCSALLQDNAADAVACAKRVVRDPQGIRAWVAWRNRCQNRDVRQYVQGCGV [I107A]	56.2	-8.7	1.65
MKALIVLGLVLLSVTVQGKVFERCELARTLKRLGMDGYRGISLANWMCLAKWESGYNTRATNYNAGDRSTDYGIFQINSRYWCNDGKTPGAVNACHLSCSALLQDNIADAVACAKRVVRDPQGARAWVAWRNRCQNRDVRQYVQGCGV [I124A]	61.9	-3	1.34
MKALIVLGLVLLSVTVQGKVFERCELARTLKRLGMDGYRGASLANWMCLAKWESGYNTRATNYNAGDRSTDYGIFQINSRYWCNDGKTPGAVNACHLSCSALLQDNIADAVACAKRVVRDPQGIRAWVAWRNRCQNRDVRQYVQGCGV [I41A]	56.8	-8.1	1.2

Same assay, conditions: Homo sapiens; pH 2.8; Thermal; DSC; glycine 0.05 M; reversible: yes; structure 1LZ1; whole UniProt chain shown

Variant	Tm [°C]	heat capacity change of unfolding [kcal/mol/K]	unfolding enthalpy (calorimetric) [kcal/mol]	unfolding enthalpy (van 't Hoff) [kcal/mol]
MKALIVLGLVLLSVTVQGKVFERCELARTLKRLGMDGYRGISLANWMCLAKWESGYNTRATNYNAGDRSTDYGIFQINSRYWCNDGKTPGAVNACHLSCSALLQDNAADAVACAKRVVRDPQGIRAWVAWRNRCQNRDVRQYVQGCGV [I107A]	57.7	1.08	97.8	103
MKALIVLGLVLLSVTVQGKVFERCELARTLKRLGMDGYRGISLANWMCLAKWESGYNTRATNYNAGDRSTDYGIFQINSRYWCNDGKTPGAVNACHLSCSALLQDNIADAVACAKRVVRDPQGARAWVAWRNRCQNRDVRQYVQGCGV [I124A]	64.1	0.98	104	111

Same assay, conditions: Homo sapiens; pH 2.95; Thermal; DSC; glycine 0.05 M; reversible: yes; structure 1LZ1; whole UniProt chain shown

Variant	Tm [°C]	heat capacity change of unfolding [kcal/mol/K]	unfolding enthalpy (calorimetric) [kcal/mol]	unfolding enthalpy (van 't Hoff) [kcal/mol]
MKALIVLGLVLLSVTVQGKVFERCELARTLKRLGMDGYRGISLANWMCLAKWESGYNTRATNYNAGDRSTDYGIFQINSRYWCNDGKTPGAVNACHLSCSALLQDNAADAVACAKRVVRDPQGIRAWVAWRNRCQNRDVRQYVQGCGV [I107A]	61.1	1.67	103	108

Same assay, conditions: Homo sapiens; pH 3.09; Thermal; DSC; glycine 0.05 M; reversible: yes; structure 1LZ1; whole UniProt chain shown

Variant	Tm [°C]	heat capacity change of unfolding [kcal/mol/K]	unfolding enthalpy (calorimetric) [kcal/mol]	unfolding enthalpy (van 't Hoff) [kcal/mol]
MKALIVLGLVLLSVTVQGKVFERCELARTLKRLGMDGYRGISLANWMCLAKWESGYNTRATNYNAGDRSTDYGIFQINSRYWCNDGKTPGAVNACHLSCSALLQDNAADAVACAKRVVRDPQGIRAWVAWRNRCQNRDVRQYVQGCGV [I107A]	62.9	1.51	106	110

Same assay, conditions: Homo sapiens; pH 2.51; Thermal; DSC; glycine 0.05 M; reversible: yes; structure 1LZ1; whole UniProt chain shown

Variant	Tm [°C]	heat capacity change of unfolding [kcal/mol/K]	unfolding enthalpy (calorimetric) [kcal/mol]	unfolding enthalpy (van 't Hoff) [kcal/mol]
MKALIVLGLVLLSVTVQGKVFERCELARTLKRLGMDGYRGISLANWMCLAKWESGYNTRATNYNAGDRSTDYGIFQINSRYWCNDGKTPGAVNACHLSCSALLQDNIADAVACAKRVVRDPQGARAWVAWRNRCQNRDVRQYVQGCGV [I124A]	57.7	1.15	96.4	102

Same assay, conditions: Homo sapiens; pH 2.96; Thermal; DSC; glycine 0.05 M; reversible: yes; structure 1LZ1; whole UniProt chain shown

Variant	Tm [°C]	heat capacity change of unfolding [kcal/mol/K]	unfolding enthalpy (calorimetric) [kcal/mol]	unfolding enthalpy (van 't Hoff) [kcal/mol]
MKALIVLGLVLLSVTVQGKVFERCELARTLKRLGMDGYRGISLANWMCLAKWESGYNTRATNYNAGDRSTDYGIFQINSRYWCNDGKTPGAVNACHLSCSALLQDNIADAVACAKRVVRDPQGARAWVAWRNRCQNRDVRQYVQGCGV [I124A]	67.4	1.17	109	114
MKALIVLGLVLLSVTVQGKVFERCELARTLKRLGMDGYRGASLANWMCLAKWESGYNTRATNYNAGDRSTDYGIFQINSRYWCNDGKTPGAVNACHLSCSALLQDNIADAVACAKRVVRDPQGIRAWVAWRNRCQNRDVRQYVQGCGV [I41A]	62	1.08	105	111

Same assay, conditions: Homo sapiens; pH 3.1; Thermal; DSC; glycine 0.05 M; reversible: yes; structure 1LZ1; whole UniProt chain shown

Variant	Tm [°C]	heat capacity change of unfolding [kcal/mol/K]	unfolding enthalpy (calorimetric) [kcal/mol]	unfolding enthalpy (van 't Hoff) [kcal/mol]
MKALIVLGLVLLSVTVQGKVFERCELARTLKRLGMDGYRGISLANWMCLAKWESGYNTRATNYNAGDRSTDYGIFQINSRYWCNDGKTPGAVNACHLSCSALLQDNIADAVACAKRVVRDPQGARAWVAWRNRCQNRDVRQYVQGCGV [I124A]	69.7	1.58	112	119

Same assay, conditions: Homo sapiens; pH 2.67; Thermal; DSC; glycine 0.05 M; reversible: yes; structure 1LZ1; whole UniProt chain shown

Variant	Tm [°C]	heat capacity change of unfolding [kcal/mol/K]	unfolding enthalpy (calorimetric) [kcal/mol]	unfolding enthalpy (van 't Hoff) [kcal/mol]
MKALIVLGLVLLSVTVQGKVFERCELARTLKRLGMDGYRGASLANWMCLAKWESGYNTRATNYNAGDRSTDYGIFQINSRYWCNDGKTPGAVNACHLSCSALLQDNIADAVACAKRVVRDPQGIRAWVAWRNRCQNRDVRQYVQGCGV [I41A]	56.2	1.51	98.1	103
